# Assay results published in PMC6794372.
# What was measured:
# [1] = target: PRA, recombinant C-terminal domain of MYH9, His-SUMO tag removed; experiment: negative-stain electron microscopy; purified PRA (5 mM) for 1 h at 4°C in 50 mM Tris, 150 mM NaCl, 10% glycerol, 3 mM CaCl2; supernatant after centrifugation, 1% uranyl acetate
# [2] = target: PRA, recombinant C-terminal domain of MYH9, His-SUMO tag removed; experiment: non-reducing SDS-PAGE and Western blot; PRA (5 mM) alone or pre-incubated with S100A4 (10 mM, 3 mM CaCl2) at 4°C for 1 h; without DTT; blot with anti-MYH9 pAb
substance,measurement,setting,value
"PRA, recombinant C-terminal domain of MYH9, His-SUMO tag removed (domain or fragment)",stoichiometry N,[1],2
same,stoichiometry N,[2],2
